Laboratory results: US20230041661A1 (Bicycle, published 2023)
Numbered stars: 1 amine (or outer) side, 2 acyl side, 3 side chain; on linkers, the order of the positions; unused ones are H or OH. Bridge positions count the residues as written; N and C are the ends. Ends that are not written are not given here. TAST = 1,4,7-tris(vinylsulfonyl)-1,4,7-triazonane scaffold, O=S(=O)(CC[*:1])N1CCN(S(=O)(=O)CC[*:2])CCN(S(=O)(=O)CC[*:3])CC1

Biological target: T1, Human IL-17A (human, UniProt Q16552 24-155)
T1 construct: also called Interleukin-17; CTLA-8
T1 sequence (looked up): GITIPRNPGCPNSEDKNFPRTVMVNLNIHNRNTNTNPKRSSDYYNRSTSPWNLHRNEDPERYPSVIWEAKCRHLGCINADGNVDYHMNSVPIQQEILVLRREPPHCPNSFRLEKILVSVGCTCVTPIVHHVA
Test: fluorescence polarisation competition, 75 nM human IL-17A, 1 nM tracer BCY13196 as competitor, mean of n=3, Cheng Prusoff fit
Method: Affinity determination by fluorescence polarization (FP) competition. Bicycles were screened to determine affinity (Ki) in a fluorescence polarisation assay where in competition with a bicycle labelled with fluorescein (referred to as tracer) with a known affinity for IL-17A. Peptides were diluted to an appropriate concentration in assay buffer (PBS+0.01% Tween20, adjusted to pH7.4 using NaOH (1M)) with a maximum of 1% DMSO, then serially diluted 1 in 2 into assay buffer. Into black 384-well low volume plates, […] of diluted peptide was added to the plate followed by […] of IL-17A at a fixed concentration (75 nM IL-17A for tracer BCY13196, 50 nM IL-17A for tracer BCY13351), then […] tracer added to a final concentration of 1 nM. Measurements were conducted on a BMG PHERAstar FS equipped with an “FP 485 520 520” optic module which excites at 485 nm and detects parallel and perpendicular emission at 520 nm. The PHERAstar FS was set at 25° C. with 200 flashes per well and a positioning delay of 0.1 second, with each well measured at 5 to 10 minute intervals for 60 minutes. The gain used for measurements was determined at the point of experiment on a tracer alone well. […]
Selected peptide ligands of the invention were tested in the above mentioned IL-17A human fluorescence polarization (FP) competition assay and the results are shown in Table 1: […]

Ki: 313 nM
B1: BCY13059 (peptide)
peptide: ACPQDLELCTFLFGDCA
modifications: linker 2-9-16 via TAST
notes: Synthetic bicyclic peptide cyclised on TAST
